Our source for the Kd values is article PMC3206016, “Putting into Practice Domain-Linear Motif Interaction Predictions for Exploration of Protein Networks” (PLoS ONE, 2011).

Where two headings read alike, the source gives them in different places.

What all share (assay): SPR
Assay [1] has as its target 16E6L/V (C-terminal peptide of HPV16 early protein E6 with L158V) (human papilloma virus 16).
Assay [2] shares this target. This is another data set of the same source.
For assay [3] the target is unchanged. This is another data set of the same source.
Assay [4] has the same target. The source holds these as a separate data set.

MAGI1-2/6 (MBP fusion of the second of the six PDZ domains of MAGI1), sequence (Q6RHR9 448-572): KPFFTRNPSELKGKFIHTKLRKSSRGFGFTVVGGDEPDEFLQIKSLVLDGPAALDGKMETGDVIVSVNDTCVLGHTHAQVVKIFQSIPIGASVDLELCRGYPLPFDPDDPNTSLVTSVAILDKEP
SCRIB-3/4 (MBP fusion of the third of the four PDZ domains of SCRIB), sequence (Q14160 997-1093): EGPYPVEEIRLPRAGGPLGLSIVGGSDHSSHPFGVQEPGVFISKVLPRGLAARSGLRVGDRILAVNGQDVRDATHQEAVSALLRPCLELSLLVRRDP
MAGI1-3/6 (MBP fusion of the third of the six PDZ domains of MAGI1), sequence (Q6RHR9 613-752): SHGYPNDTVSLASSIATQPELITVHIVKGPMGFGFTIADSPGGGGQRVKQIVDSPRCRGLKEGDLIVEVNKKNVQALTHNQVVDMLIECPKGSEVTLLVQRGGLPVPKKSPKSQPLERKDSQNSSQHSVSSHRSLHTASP
SCRIB-34/4 (MBP fusion of the tandem of the third and fourth PDZ domains of SCRIB), sequence (Q14160 997-1193): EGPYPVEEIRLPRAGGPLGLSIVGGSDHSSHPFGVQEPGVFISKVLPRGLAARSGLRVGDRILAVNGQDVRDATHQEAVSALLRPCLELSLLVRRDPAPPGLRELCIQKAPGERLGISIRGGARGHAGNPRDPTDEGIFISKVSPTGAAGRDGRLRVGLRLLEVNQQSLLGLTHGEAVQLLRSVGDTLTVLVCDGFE

As usually defined, the Kd is the free concentration of one partner at which half of the binding sites on the other are occupied at equilibrium, for simple one-to-one binding. Read a low Kd as a tighter complex. Take “MAGI1-2/6 (MBP fusion of the second of the six PDZ domains of MAGI1) (from UniProt Q6RHR9-1 448-572) (domain or fragment)”: the Kd turned out to be 2 µM in assay [1], 1 µM in assay [2] and 18 µM in assay [3].
Taken in the same sequence, the figures for “MAGI1-3/6 (MBP fusion of the third of the six PDZ domains of MAGI1) (from UniProt Q6RHR9-1 613-752) (domain or fragment)” were 69 µM, 202 µM and 76 µM.
On to “SCRIB-3/4 (MBP fusion of the third of the four PDZ domains of SCRIB) (from UniProt Q14160-1 997-1093) (domain or fragment)”, for which the dissociation constant Kd in assay [1] came out at 18 µM; in assay [2], 32 µM; in assay [3], 41 µM.
Turning to “SCRIB-34/4 (MBP fusion of the tandem of the third and fourth PDZ domains of SCRIB) (from UniProt Q14160-1 997-1193) (domain or fragment)”, the dissociation constant Kd in assay [1] turned out to be 3 µM; in assay [4], 4 µM.
